We go through two molecules from paper PMC5993284, “Peptide inhibitors of the anaphase promoting-complex that cause sensitivity to microtubule poison” (PLoS ONE, 2018).

One assay has as its target T1, APC/C^Cdc20 (Saccharomyces cerevisiae, UniProt P16522+P53886).
T1 construct: constructed within full-length Cdc20 by site-directed mutagenesis for analysis in vitro in the APC/C^Cdc20 assay; The APC/C was purified for enzyme assays from 1 mL of TAP-tagged Cdc16 yeast extract (SCSY51); made in house; host or cells: Cdc20: in vitro transcription/translation in rabbit reticulocyte lysate, used unpurified; APC/C: S. cerevisiae strain SCSY51 (Cdc16-TAP) extract, captured on IgG magnetic beads
As to the kind of experiment: biochemical. The class given is biochemical. The settings on record: for inhibition of APC/C^Cdc20 activity (in words): 220 μM peptide, time course 0-60 minutes, vs buffer only, n = 3. The essentials:
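Bead-bound TAP-Cdc16 yeast APC/C was mixed with IVT-made Cdc20 or Cdh1, pre-incubated 1 h at rt with checkpoint proteins or inhibitor peptides, plus pre-charged E1/E2/ATP/ubiquitin and ^35S-Pds1 in 20 mM HEPES pH 8.0, 100 mM NaCl, 1 mM MgCl2. Time points were stopped in SDS buffer and resolved by SDS-PAGE.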

Assay [1] relates to budding yeast Saccharomyces cerevisiae cells. As to the kind of experiment: Benomyl sensitivity upon over expression in vivo (colony numbers per plate). Format: cell-based. The settings on record: for benomyl sensitivity on over expression (in words): pGAL1-10 over expression with N-terminal NLS, 12.5 μg/mL benomyl, average colony numbers per plate, 5 replicates; for effect of over expression on colony number without benomyl (in words): pGAL1-10 over expression, galactose, no benomyl. The method, then:
For the production of high quality DNA for in vitro transcription/translation E. coli were grown in 50 mL LB containing 100 μg/mL ampicillin for 12–16 hours at 37 °C. Purified plasmid DNA, which was dissolved with 50 μL ddH2O or DEPC (diethyl pyrocarbonate)-treated water, was measured at OD260/280 and stored at -20 °C (Bioman, Inc., Taiwan). All mutant allele expression plasmids were constructed employing site-directed mutagenesis following the manufacturer’s protocol (Stratagene, USA). Yeast were cultured under standard conditions. For large-scale yeast cultures to purify APC/C, yeast were cultured overnight in 10 mL YPD medium (20 g Dextrose, 20 g peptone, and 10 g yeast extract per liter) at 30 °C. 1.5 L of YPD medium in two Fernbach flasks was inoculated with 1 mL overnight culture and supplemented with 100 μg/mL ampicillin and 100 μg/mL streptomycin to prevent bacterial growth. Cell cycle arrest, collection of yeast cells and yeast cell extractions were all performed as previously described.
There is a long-term interest in identifying APC/C inhibitors that give rise to sensitivity to microtubule poisons in vivo. To determine if a Cdc20 Mad2-binding motif peptide was sufficient to induce a microtubule poison sensitivity phenotype in vivo, the DQ36 and PQ65 peptides were over expressed under the control of a galactose inducible pGAL1-10 promoter that had been integrated as single copy into the yeast genome together with the peptide open reading frames (ORF). The expressed proteins were engineered to contain an N-terminal nuclear localization signal ([…]) along with a short amino acid ‘linker’ in order to target the nuclear pool of the APC/C because yeast undergo a closed mitosis without nuclear envelope breakdown. […] This phenotype was suppressed by mutating the yeast KILR-motif residues RILQY to AAAAA (Fig 7B) providing a direct correlation between our observed in vitro APC/C inhibition that requires the yeast KILR-motif RILQY residues and an in vivo microtubule poison sensitivity phenotype.

Entries after “also recorded” stand apart in the source; their conditions may differ. Ends that are not written are not given here. * marks the point of attachment. Biotin = O=C1N[C@H]2[C@H](CS[C@H]2CCCCC(=O)*)N1

The IC50 is the concentration that inhibits the measured activity by half.

Regarding “DQ36-mut1: DQ36-mut1 where all 5 RILQY residues were changed to alanine AAAAA (Biotin-DMNKAAAAAMPEPPKCSSLRQKSYIMKKRTHYSYQQ)”, in the assay with APC/C^Cdc20 (35S-Pds1 substrate), the “inhibition of APC/C^Cdc20 activity (in words)” value is listed as “The RILQY residues of the yeast KILR-motif were observed to be essential for full inhibition”. In addition, in assay [1], the “benomyl sensitivity on over expression (in words)” value is “The benomyl sensitivity phenotype was not observed” and the “effect of over expression on colony number without benomyl (in words)” value is recorded as “no significant difference in colony numbers per plate in the absence of benomyl”.

B1: PQ65: 65 amino acid residue peptide called PQ65 (Cdc20 169–232) (peptide, UniProt P26309 169-232, looked up, fragment)
chain: PPNASPISHLRAQTKIVFKQNVAEACGLDMNKRILQYMPEPPKCSSLRQKSYIMKKRTHYSYQQ
In the case of B1, in the assay with APC/C^Cdc20 (35S-Pds1 substrate), the “inhibition of APC/C^Cdc20 activity (in words)” value was “sufficient to inhibit APC/C^Cdc20 activity; also recorded: A significant level of APC/C^Cdc20 inhibition was observed”. Moreover, the “overall APC/C inhibition (in words)” value with APC/C^Cdc20 (discussion/conclusion statement) is given as “displayed the highest level of APC/C inhibition in vitro”. Besides, the IC50 with APC/C^Cdc20 (peptide titration dilution series, 35S-Pds1 substrate, estimated/approximate, read-out: IC50) is < 50 µM. Besides, in assay [1], the “benomyl sensitivity on over expression (in words)” value is “induced a significant sensitivity to benomyl; also recorded: leads to sensitivity to the microtubule poison benomyl” and the “effect of over expression on colony number without benomyl (in words)” value is on record as “no change in colony number or colony morphology was observed; also recorded: no significant difference in colony numbers per plate in the absence of benomyl”.
